From PMC11609597, “Characterization of two bacterial tyrosinases from the halophilic bacterium Hahella sp. CCB MM4 relevant for phenolic compounds oxidation in wetlands” (FEBS Open Bio, 2024) come the findings set out here.

One series deals with T1, cleaved-HcTyr1 (Hahella sp. CCB-MM4, UniProt A0A261GRE4).
T1 construct: gene BTA51_09820; TYR domain after self-cleavage of the C-terminal LID domain during storage (over 2 months, 4 °C); used without further purification; expressed in E. coli BL21(DE3) with C-terminal His tag; Cu(II) added 2:1
Description: MBTH o-quinone trapping, absorbance at […] nm, Michaelis-Menten fit. The class given is biochemical. The conditions noted are these: 50 mM potassium phosphate pH 7.0, 25 °C, 5 mM MBTH, 2% N,N'-dimethylformamide, Cu(II) 2:1; LID self-cleaved form; diphenolase.

Substrate in series [1]: N[C@@H](Cc1ccc(O)cc1)C(=O)O
Description: purified protein. It counts as biochemical, Hahella sp. CCB-MM4. The conditions noted are these: 5 mM MBTH, 2% N,N'-dimethylformamide.

Substrate in series [2]: N[C@@H](Cc1ccc(O)c(O)c1)C(=O)O
Description: purified protein. It counts as biochemical, Hahella sp. CCB-MM4. The conditions noted are these: 5 mM MBTH, 2% N,N'-dimethylformamide.

Setting [3] is: 50 mM potassium phosphate pH 7.0, 25 °C, Cu(II) 2:1, latent form, monophenolase.
[4] abbreviates: 50 mM potassium phosphate pH 7.0, 25 °C, Cu(II) 2:1, latent form, diphenolase.
The mark [5] stands for this setting: 50 mM sodium citrate pH 5.5, 25 °C, Cu(II) 2:1, monophenolase.
Setting [6] is: 50 mM sodium citrate pH 5.5, 25 °C, Cu(II) 2:1, diphenolase.

With `N[C@@H](Cc1ccc(O)c(O)c1)C(=O)O` [L-DOPA], the Km at cleaved-HcTyr1 was found to be 347 ± 7 µM.

B1: HcTyr1 (latent-HcTyr1) (Hahella sp. CCB-MM4) (protein)
chain: MKTRQNVYELKDDTLSWYSRAVEEMKSRDINDPTSWWYQGAIHGYATYPSALTYWHDATGYPPSQQTVNSGFWNRCQHGTWYFLPWHRMYLFYFEEIVAKAIRDMGGPADWTLPYWNYCEAYNTSASPSNQQQALQIPPEFGSSQGPNADFASLWIKNRRNYVLNKNNVNPWPAMNEAEFTNSGGDISFGGGVTGFAHSGGQTGQLESLPHNVVHTDINGAMGNPDTAALDPIFWLHHANIDRLWQVWLAQAGRSNPVVNAWKDFRFKFHDANGQPVEIAVKDVETTQLLGYVYTPAFPLSSTTPARRSVPAMDVVGATSASFSVGDHMAPLDLTMVPQPARGARLLAARGGDEKRTILRISNVKGKGATSPIDLFITNRDNEEGNEENFVGCIGLFGLENASTPSVESDGSGLNFAIDISDTINKLRQRDDWDEDNIRVQLIPQSKQDSDVEINVGRVSLHSEID
notes: full length 466 aa with LID domain (latent), C-terminal His tag (pET22b), E. coli BL21(DE3), about 52 kDa, monomer; Cu(II) added 2:1
On to B1, for which the Km in the series “purified protein [1]” (setting [3]) is 187 ± 35 µM; in the series “purified protein [2]” (setting [4]) it was 370 ± 5 µM. The values for the kcat in “purified protein [1]” (setting [3]) and in “purified protein [2]” (setting [4]) were 0.71 ± 0.03 s⁻¹ and 1.00 ± 0.0 s⁻¹, respectively.

B2: HcTyr2 (Hahella sp. CCB-MM4) (protein)
chain: MGDSSELNVRRSVRDLQAEYDRGNRKPLEDLIRAWKGIQELPPDDKRSFFILGGYHGEPFDYRNAVDALPPDDIYTYWGGWCNHGNVLFPTWHRIYILKLEEALQSIVPGVTLPFWDETSEETVKKGIPDVLTREYFELDGENIKNPLYSYTLPLSLSDNVPGDNKAYEKPAGYETVRYPLSGLVGTPEARAATAKHNAKYPNPIENTQLLNKNIIAWLHGSGKDEEGPTTTDPNPKGRGVKWMYEKCLSAPNYTVFSNTTSAGQWNLDHPAKSVVALEQPHNDVHLAVGGFDIPGQGESGQVADANGDMGENNTAALDPIFFFHHCNVDRMFWLWQKQNGFINKLEVITGYYGTNSSDSQGPTPGIPPGTPLDLNTPLNPFIKDEFGNPFTSMDCINIEEQLGYTYGPGSLDEVPKPEPITGGSTKKLTVRGINRGLFDGSFVIRAYASVPDAQGQLTEYYLGDHAVLSRRNVVKCANCLTHLEVIAHFPLDTLSADLVDKAEYWITIQHRGHSKRMKVDKDTGQSEKALLAQRAELPEKLKYSISVTD
notes: full length 550 aa with LID domain attached, C-terminal His tag (pET22b), E. coli BL21(DE3), about 61 kDa; Cu(II) added 2:1
For the molecule B2, the Km in the series “purified protein [1]” (setting [5]) came to 160 ± 5 µM; in “purified protein [2]” (setting [6]), 196 ± 6 µM. In addition, the values for the kcat in the series “purified protein [1]” (setting [5]) and in the series “purified protein [2]” (setting [6]) were 6.12 s⁻¹ and 9.94 ± 0.0 s⁻¹, respectively.

In general, Km refers to the substrate concentration at which the rate is half of its maximum. What is called kcat is the maximal rate divided by the concentration of active sites.
